What all share (assay): fluorescence polarisation
In experiment [1] the target is T1, BFL-1ΔC C55 (N-His6 BFL-1ΔC (1–151) bearing C4S/C19S mutations) (human, UniProt Q16548 1-151, C4S | C19S).
T1 sequence (looked up): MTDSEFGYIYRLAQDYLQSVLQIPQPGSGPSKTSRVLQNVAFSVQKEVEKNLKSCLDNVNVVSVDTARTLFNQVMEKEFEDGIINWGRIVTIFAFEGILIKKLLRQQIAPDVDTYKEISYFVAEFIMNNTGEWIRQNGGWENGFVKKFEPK

Experiment [2] addresses T1, BFL-1ΔC C55 (N-His6 BFL-1ΔC (1–151) …). This is another data set of the same source.
Experiment [3] has the same target. This is another data set of the same source.
The target is the same in experiment [4]. This is another data set of the same source.
Experiment [5] shares this target. The source holds these as a separate data set.

Like-named read-outs stand apart in the source and are kept apart here. Where no end group is shown, it is not given here. The star is where a group is joined. FITC = O=C1OC2(c3ccc(O)cc3Oc3cc(O)ccc32)c2ccc(NC(=S)*)cc21

B1: FITC-BID BH3 peptide (peptide)
chain: {FITC}-DIIRNIARHLAQVGDSMDRSI
What is called Kd is the concentration at which binding is half-saturated. Consider B1, for which the Kd in experiment [1] came to 3.3 nM; in experiment [2], 18.4 nM; in experiment [3], 24.3 nM; in experiment [4] it was 12.3 nM; in experiment [5], 1.6 nM.

Source of the values: article PMC7544158 (Nature structural & molecular biology, 2020).
